The source of these data is publication PMC10540216, “Activity Guided Azide-methyllysine Photo-trapping for Substrate Profiling of Lysine Demethylases” (Journal of the American Chemical Society, 2023).

This test deals with KDM4A-I71AzF. The experiment in a line: CASI: photo-crosslinking with HEK293T cell extracts, StrepTactin enrichment and LC-MS/MS proteomics.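 Note: lysates from HEK293T cells pretreated with a KDM4 inhibitor to raise proteome methylation, affinity-purified after ±UV, gel-resolved, trypsin-digested, with exclusive unique peptides per protein averaged per condition.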 The class given is binding, human. Conditions: sheet "Final results but with 0.01".

B1: RBM14_HUMAN (protein, UniProt Q96PK6 1-669, looked up)
RNA-binding protein 14: MKIFVGNVDGADTTPEELAALFAPYGTVMSCAVMKQFAFVHMRENAGALRAIEALHGHELRPGRALVVEMSRPRPLNTWKIFVGNVSAACTSQELRSLFERRGRVIECDVVKDYAFVHMEKEADAKAAIAQLNGKEVKGKRINVELSTKGQKKGPGLAVQSGDKTKKPGAGDTAFPGTGGFSATFDYQQAFGNSTGGFDGQARQPTPPFFGRDRSPLRRSPPRASYVAPLTAQPATYRAQPSVSLGAAYRAQPSASLGVGYRTQPMTAQAASYRAQPSVSLGAPYRGQLASPSSQSAAASSLGPYGGAQPSASALSSYGGQAAAASSLNSYGAQGSSLASYGNQPSSYGAQAASSYGVRAAASSYNTQGAASSLGSYGAQAASYGAQSAASSLAYGAQAASYNAQPSASYNAQSAPYAAQQAASYSSQPAAYVAQPATAAAYASQPAAYAAQATTPMAGSYGAQPVVQTQLNSYGAQASMGLSGSYGAQSAAAATGSYGAAAAYGAQPSATLAAPYRTQSSASLAASYAAQQHPQAAASYRGQPGNAYDGAGQPSAAYLSMSQGAVANANSTPPPYERTRLSPPRASYDDPYKKAVAMSKRYGSDRRLAELSDYRRLSESQLSFRRSPTKSSLDYRRLPDAHSDYARYSGSYNDYLRAAQMHSGYQRRM
Take B1: the “Fold change (+UV/-UV)” value is 2.

B2: SRC8_HUMAN (protein, UniProt Q14247 1-550, looked up)
Src substrate cortactin: MWKASAGHAVSIAQDDAGADDWETDPDFVNDVSEKEQRWGAKTVQGSGHQEHINIHKLRENVFQEHQTLKEKELETGPKASHGYGGKFGVEQDRMDKSAVGHEYQSKLSKHCSQVDSVRGFGGKFGVQMDRVDQSAVGFEYQGKTEKHASQKDYSSGFGGKYGVQADRVDKSAVGFDYQGKTEKHESQRDYSKGFGGKYGIDKDKVDKSAVGFEYQGKTEKHESQKDYVKGFGGKFGVQTDRQDKCALGWDHQEKLQLHESQKDYKTGFGGKFGVQSERQDSAAVGFDYKEKLAKHESQQDYSKGFGGKYGVQKDRMDKNASTFEDVTQVSSAYQKTVPVEAVTSKTSNIRANFENLAKEKEQEDRRKAEAERAQRMAKERQEQEEARRKLEEQARAKTQTPPVSPAPQPTEERLPSSPVYEDAASFKAELSYRGPVSGTEPEPVYSMEAADYREASSQQGLAYATEAVYESAEAPGHYPAEDSTYDEYENDLGITAVALYDYQAAGDDEISFDPDDIITNIEMIDDGWWRGVCKGRYGLFPANYVELRQ
Regarding B2, the “Fold change (+UV/-UV)” value came out at 0.8.

B3: SC23A_HUMAN (protein, UniProt Q15436 2-765, looked up)
Protein transport protein …: TTYLEFIQQNEERDGVRFSWNVWPSSRLEATRMVVPVAALFTPLKERPDLPPIQYEPVLCSRTTCRAVLNPLCQVDYRAKLWACNFCYQRNQFPPSYAGISELNQPAELLPQFSSIEYVVLRGPQMPLIFLYVVDTCMEDEDLQALKESMQMSLSLLPPTALVGLITFGRMVQVHELGCEGISKSYVFRGTKDLSAKQLQEMLGLSKVPLTQATRGPQVQQPPPSNRFLQPVQKIDMNLTDLLGELQRDPWPVPQGKRPLRSSGVALSIAVGLLECTFPNTGARIMMFIGGPATQGPGMVVGDELKTPIRSWHDIDKDNAKYVKKGTKHFEALANRAATTGHVIDIYACALDQTGLLEMKCCPNLTGGYMVMGDSFNTSLFKQTFQRVFTKDMHGQFKMGFGGTLEIKTSREIKISGAIGPCVSLNSKGPCVSENEIGTGGTCQWKICGLSPTTTLAIYFEVVNQHNAPIPQGGRGAIQFVTQYQHSSGQRRIRVTTIARNWADAQTQIQNIAASFDQEAAAILMARLAIYRAETEEGPDVLRWLDRQLIRLCQKFGEYHKDDPSSFRFSETFSLYPQFMFHLRRSSFLQVFNNSPDESSYYRHHFMRQDLTQSLIMIQPILYAYSFSGPPEPVLLDSSSILADRILLMDTFFQILIYHGETIAQWRKSGYQDMPEYENFRHLLQAPVDDAQEILHSRFPMPRYIDTEHGGSQARFLLSKVNPSQTHNNMYAWGQESGAPILTDDVSLQVFMDHLKKLAVSSAA
For B3, the “Fold change (+UV/-UV)” value turned out to be 0.5.

B4: XRN2_HUMAN (protein, UniProt Q9H0D6 1-950, looked up)
5'-3' exoribonuclease 2: MGVPAFFRWLSRKYPSIIVNCVEEKPKECNGVKIPVDASKPNPNDVEFDNLYLDMNGIIHPCTHPEDKPAPKNEDEMMVAIFEYIDRLFSIVRPRRLLYMAIDGVAPRAKMNQQRSRRFRASKEGMEAAVEKQRVREEILAKGGFLPPEEIKERFDSNCITPGTEFMDNLAKCLRYYIADRLNNDPGWKNLTVILSDASAPGEGEHKIMDYIRRQRAQPNHDPNTHHCLCGADADLIMLGLATHEPNFTIIREEFKPNKPKPCGLCNQFGHEVKDCEGLPREKKGKHDELADSLPCAEGEFIFLRLNVLREYLERELTMASLPFTFDVERSIDDWVFMCFFVGNDFLPHLPSLEIRENAIDRLVNIYKNVVHKTGGYLTESGYVNLQRVQMIMLAVGEVEDSIFKKRKDDEDSFRRRQKEKRKRMKRDQPAFTPSGILTPHALGSRNSPGSQVASNPRQAAYEMRMQNNSSPSISPNTSFTSDGSPSPLGGIKRKAEDSDSEPEPEDNVRLWEAGWKQRYYKNKFDVDAADEKFRRKVVQSYVEGLCWVLRYYYQGCASWKWYYPFHYAPFASDFEGIADMPSDFEKGTKPFKPLEQLMGVFPAASGNFLPPSWRKLMSDPDSSIIDFYPEDFAIDLNGKKYAWQGVALLPFVDERRLRAALEEVYPDLTPEETRRNSLGGDVLFVGKHHPLHDFILELYQTGSTEPVEVPPELCHGIQGKFSLDEEAILPDQIVCSPVPMLRDLTQNTVVSINFKDPQFAEDYIFKAVMLPGARKPAAVLKPSDWEKSSNGRQWKPQLGFNRDRRPVHLDQAAFRTLGHVMPRGSGTGIYSNAAPPPVTYQGNLYRPLLRGQAQIPKLMSNMRPQDSWRGPPPLFQQQRFDRGVGAEPLLPWNRMLQTQNAAFQPNQYQMLAGPGGYPPRRDDRGGRQGYPREGRKYPLPPPSGRYNWN
As for B4, the “Fold change (+UV/-UV)” value came out at 2.5.

B5: SYAM_HUMAN (protein, UniProt Q5JTZ9 24-985, looked up)
Alanine--tRNA ligase, …: GLSHRPLSSEPPAAKASAVRAAFLNFFRDRHGHRLVPSASVRPRGDPSLLFVNAGMNQFKPIFLGTVDPRSEMAGFRRVANSQKCVRAGGHHNDLEDVGRDLSHHTFFEMLGNWAFGGEYFKEEACNMAWELLTQVYGIPEERLWISYFDGDPKAGLDPDLETRDIWLSLGVPASRVLSFGPQENFWEMGDTGPCGPCTEIHYDLAGGVGAPQLVELWNLVFMQHNREADGSLQPLPQRHVDTGMGLERLVAVLQGKHSTYDTDLFSPLLNAIQQGCRAPPYLGRVGVADEGRTDTAYRVVADHIRTLSVCISDGIFPGMSGPPLVLRRILRRAVRFSMEILKAPPGFLGSLVPVVVETLGDAYPELQRNSAQIANLVSEDEAAFLASLERGRRIIDRTLRTLGPSDMFPAEVAWSLSLCGDLGLPLDMVELMLEEKGVQLDSAGLERLAQEEAQHRARQAEPVQKQGLWLDVHALGELQRQGVPPTDDSPKYNYSLRPSGSYEFGTCEAQVLQLYTEDGTAVASVGKGQRCGLLLDRTNFYAEQGGQASDRGYLVRAGQEDVLFPVARAQVCGGFILHEAVAPECLRLGDQVQLHVDEAWRLGCMAKHTATHLLNWALRQTLGPGTEQQGSHLNPEQLRLDVTTQTPLTPEQLRAVENTVQEAVGQDEAVYMEEVPLALTAQVPGLRSLDEVYPDPVRVVSVGVPVAHALDPASQAALQTSVELCCGTHLLRTGAVGDLVIIGDRQLSKGTTRLLAVTGEQAQQARELGQSLAQEVKAATERLSLGSRDVAEALRLSKDIGRLIEAVETAVMPQWQRRELLATVKMLQRRANTAIRKLQMGQAAKKTQELLERHSKGPLIVDTVSAESLSVLVKVVRQLCEQAPSTSVLLLSPQPMGKVLCACQVAQGAMPTFTAEAWALAVCSHMGGKAWGSRVVAQGTGSTTDLEAALSIAQTYALSQL
In the case of B5, the “Fold change (+UV/-UV)” value stood at 0.625.

B6: MCM3_HUMAN (protein, UniProt P25205 2-808, looked up)
DNA replication licensing …: AGTVVLDDVELREAQRDYLDFLDDEEDQGIYQSKVRELISDNQYRLIVNVNDLRRKNEKRANRLLNNAFEELVAFQRALKDFVASIDATYAKQYEEFYVGLEGSFGSKHVSPRTLTSCFLSCVVCVEGIVTKCSLVRPKVVRSVHYCPATKKTIERRYSDLTTLVAFPSSSVYPTKDEENNPLETEYGLSVYKDHQTITIQEMPEKAPAGQLPRSVDVILDDDLVDKAKPGDRVQVVGTYRCLPGKKGGYTSGTFRTVLIACNVKQMSKDAQPSFSAEDIAKIKKFSKTRSKDIFDQLAKSLAPSIHGHDYVKKAILCLLLGGVERDLENGSHIRGDINILLIGDPSVAKSQLLRYVLCTAPRAIPTTGRGSSGVGLTAAVTTDQETGERRLEAGAMVLADRGVVCIDEFDKMSDMDRTAIHEVMEQGRVTIAKAGIHARLNARCSVLAAANPVYGRYDQYKTPMENIGLQDSLLSRFDLLFIMLDQMDPEQDREISDHVLRMHRYRAPGEQDGDAMPLGSAVDILATDDPNFSQEDQQDTQIYEKHDNLLHGTKKKKEKMVSAAFMKKYIHVAKIIKPVLTQESATYIAEEYSRLRSQDSMSSDTARTSPVTARTLETLIRLATAHAKARMSKTVDLQDAEEAVELVQYAYFKKVLEKEKKRKKRSEDESETEDEEEKSQEDQEQKRKRRKTRQPDAKDGDSYDPYDFSDTEEEMPQVHTPKTADSQETKESQKVELSESRLKAFKVALLDVFREAHAQSIGMNRLTESINRDSEEPFSSVEIQAALSKMQDDNQVMVSEGIIFLI
As to B6, the “Fold change (+UV/-UV)” value came to 1.2.

B7: SFPQ_HUMAN (protein, UniProt P23246 1-707, looked up)
Splicing factor, proline- and …: MSRDRFRSRGGGGGGFHRRGGGGGRGGLHDFRSPPPGMGLNQNRGPMGPGPGQSGPKPPIPPPPPHQQQQQPPPQQPPPQQPPPHQPPPHPQPHQQQQPPPPPQDSSKPVVAQGPGPAPGVGSAPPASSSAPPATPPTSGAPPGSGPGPTPTPPPAVTSAPPGAPPPTPPSSGVPTTPPQAGGPPPPPAAVPGPGPGPKQGPGPGGPKGGKMPGGPKPGGGPGLSTPGGHPKPPHRGGGEPRGGRQHHPPYHQQHHQGPPPGGPGGRSEEKISDSEGFKANLSLLRRPGEKTYTQRCRLFVGNLPADITEDEFKRLFAKYGEPGEVFINKGKGFGFIKLESRALAEIAKAELDDTPMRGRQLRVRFATHAAALSVRNLSPYVSNELLEEAFSQFGPIERAVVIVDDRGRSTGKGIVEFASKPAARKAFERCSEGVFLLTTTPRPVIVEPLEQLDDEDGLPEKLAQKNPMYQKERETPPRFAQHGTFEYEYSQRWKSLDEMEKQQREQVEKNMKDAKDKLESEMEDAYHEHQANLLRQDLMRRQEELRRMEELHNQEMQKRKEMQLRQEEERRRREEEMMIRQREMEEQMRRQREESYSRMGYMDPRERDMRMGGGGAMNMGDPYGSGGQKFPPLGGGGGIGYEANPGVPPATMSGSMMGSDMRTERFGQGGAGPVGGQGPRGMGPGTPAGYGRGREEYEGPNKKPRF
Regarding B7, the “Fold change (+UV/-UV)” value was 0.9.

B8: ZYX_HUMAN (protein, UniProt Q15942 2-572, looked up)
Zyxin: AAPRPSPAISVSVSAPAFYAPQKKFGPVVAPKPKVNPFRPGDSEPPPAPGAQRAQMGRVGEIPPPPPEDFPLPPPPLAGDGDDAEGALGGAFPPPPPPIEESFPPAPLEEEIFPSPPPPPEEEGGPEAPIPPPPQPREKVSSIDLEIDSLSSLLDDMTKNDPFKARVSSGYVPPPVATPFSSKSSTKPAAGGTAPLPPWKSPSSSQPLPQVPAPAQSQTQFHVQPQPQPKPQVQLHVQSQTQPVSLANTQPRGPPASSPAPAPKFSPVTPKFTPVASKFSPGAPGGSGSQPNQKLGHPEALSAGTGSPQPPSFTYAQQREKPRVQEKQHPVPPPAQNQNQVRSPGAPGPLTLKEVEELEQLTQQLMQDMEHPQRQNVAVNELCGRCHQPLARAQPAVRALGQLFHIACFTCHQCAQQLQGQQFYSLEGAPYCEGCYTDTLEKCNTCGEPITDRMLRATGKAYHPHCFTCVVCARPLEGTSFIVDQANRPHCVPDYHKQYAPRCSVCSEPIMPEPGRDETVRVVALDKNFHMKCYKCEDCGKPLSIEADDNGCFPLDGHVLCRKCHTARAQT
On to B8, for which the “Fold change (+UV/-UV)” value is given as 0.
